Test results reported in paper PMC11784312 (Journal of Virology, 2024).
Changes are numbered by the printed parent chain.

B1: 2D7 neutralizing antibody (antibody, V domains shown)
VH: VQLQESGPGLVKPSQSLSLTCTVTGYSITSDYTWNWIRQFPGNKLEWMGYISYSGSTSYNPSLKSRMSITRDTSKNQFLLQLNSVTTADTATYYCTRDGPYWHIDVWGAGTTVTVSS
VL: DIQMNQSPSSLSASLGDTITITCHASQTINIWLSWYQLKPGNIPKLLIYKASNLHTGVPSRFSGSGSGTGFTLTISSLQPEDIASYYCQQGQSFPYTFGGGTKLEIK
notes: whole murine IgG
B2: 1H9 neutralizing antibody (antibody, V domains shown)
VH: VQLQESGPGLVKPSQSLSLTCTVTGYSITSDYTWNWIRQFPGNKLEWMGYITYSDTTSYNPSLKSRISITRDTSKNQFFLQLNSVTTEDTATYYCARSDGWYGFAYWGQGTLVTVSA
VL: B1 VL with T28N, I31V, L38Q, S52F, N53D, S85T, S93T, F94Y, Y96F
notes: also called nAb 1H9; source: mouse hybridoma, ascites of BALB/c mice, purified (protein G agarose)

Experiments:
[1] = molecular target: T1, hemagglutinin of A/chicken/Guangdong/SD008/2017 (H7N9) (Influenza A virus …, UniProt A0A2D0Z8H0, strain); test: ELISA; conditions: both partners purified
[2] = molecular target: SD008 HA expressed from pcDNA 3.1-SD008-HA (Influenza A virus …, UniProt A0A2D0Z8H0, strain); test: immunostaining of cells or tissue; conditions: one partner purified
[3] = molecular target: T1, hemagglutinin of …; test: flow cytometry on cells; conditions: one partner purified

Binder	binding result [1]	binding result [2]	binding result [3]
B1	binds	binds	
B2		binds	binds
